B1: CPEB3 Ribozyme (parent)
chain: GGGGGCCACAGCAGAAGCGUUCACGUCGCGGCCCCUGUCAGAUUCUGGUGAAUCUGCGAAUUCUGCUGU

Variants of: B1
Assay: self-cleavage, relative activity (ratio to wild type); higher = more cleavage; co-transcriptional

Q: For G19C C34A, which self-cleavage is on record?
A: 0.196

Q: With G19C C34G as the variant, how does the self-cleavage read?
A: 0.115

Q: With G19C C34U as the variant, how does the self-cleavage read?
A: 0.209

Q: With G19C C35A as the variant, how does the self-cleavage read?
A: 0.154

Q: Which self-cleavage does the source give for G19C C35G here?
A: 0.149

Q: Which self-cleavage does the source give for G19C C39A here?
A: 0.155

Q: For G19C C45A, which self-cleavage is on record?
A: 0.178

Q: With G19C C45G as the variant, how does the self-cleavage read?
A: 0.119

Q: With G19C C45U as the variant, how does the self-cleavage read?
A: 0.154

Q: With G19C C54A as the variant, how does the self-cleavage read?
A: 0.158

Q: With G19C C54G as the variant, how does the self-cleavage read?
A: 0.163

Q: With G19C C54U as the variant, how does the self-cleavage read?
A: 0.113

Q: For G19C C57A, which self-cleavage is on record?
A: 0.158

Q: For G19C C57G, which self-cleavage is on record?
A: 0.132

Q: With G19C C66A as the variant, how does the self-cleavage read?
A: 0.114

Q: Which self-cleavage does the source give for G19C C66G here?
A: 0.172

Q: With G19C C66U as the variant, how does the self-cleavage read?
A: 0.105

Q: For G19C G25C, which self-cleavage is on record?
A: 0.141

Q: With G19C G28A as the variant, how does the self-cleavage read?
A: 0.147

Q: For G19C G28C, which self-cleavage is on record?
A: 0.131

Q: For G19C G28U, which self-cleavage is on record?
A: 0.142

Q: For G19C G30A, which self-cleavage is on record?
A: 0.159

Q: Which self-cleavage does the source give for G19C G30C here?
A: 0.129

Q: Which self-cleavage does the source give for G19C G31A here?
A: 0.132

Q: Which self-cleavage does the source give for G19C G31C here?
A: 0.153

Q: For G19C G31U, which self-cleavage is on record?
A: 0.217

Q: With G19C G37A as the variant, how does the self-cleavage read?
A: 0.225

Q: With G19C G37C as the variant, how does the self-cleavage read?
A: 0.183

Q: For G19C G37U, which self-cleavage is on record?
A: 0.143

Q: Which self-cleavage does the source give for G19C G41A here?
A: 0.142

Q: For G19C G41C, which self-cleavage is on record?
A: 0.17

Q: For G19C G47C, which self-cleavage is on record?
A: 0.147

Q: For G19C G47U, which self-cleavage is on record?
A: 0.152

Q: With G19C G50A as the variant, how does the self-cleavage read?
A: 0.147

Q: Which self-cleavage does the source give for G19C G50U here?
A: 0.186

Q: Which self-cleavage does the source give for G19C G56A here?
A: 0.16

Q: With G19C G56C as the variant, how does the self-cleavage read?
A: 0.169

Q: With G19C G58C as the variant, how does the self-cleavage read?
A: 0.12

Q: With G19C G58U as the variant, how does the self-cleavage read?
A: 0.19

Q: For G19C G65A, which self-cleavage is on record?
A: 0.127

Q: Which self-cleavage does the source give for G19C G65C here?
A: 0.12

Q: For G19C G65U, which self-cleavage is on record?
A: 0.133

Q: For G19C G68A, which self-cleavage is on record?
A: 0.201

Q: Which self-cleavage does the source give for G19C G68C here?
A: 0.187

Q: Which self-cleavage does the source give for G19C G68U here?
A: 0.13

Q: Which self-cleavage does the source give for G19C U20A here?
A: 0.109

Q: For G19C U20C, which self-cleavage is on record?
A: 0.19

Q: Which self-cleavage does the source give for G19C U20G here?
A: 0.126

Q: Which self-cleavage does the source give for G19C U21A here?
A: 0.109

Q: With G19C U21C as the variant, how does the self-cleavage read?
A: 0.142

Q: Which self-cleavage does the source give for G19C U26A here?
A: 0.13

Q: For G19C U26C, which self-cleavage is on record?
A: 0.153

Q: Which self-cleavage does the source give for G19C U26G here?
A: 0.109

Q: Which self-cleavage does the source give for G19C U36A here?
A: 0.188

Q: With G19C U36C as the variant, how does the self-cleavage read?
A: 0.0775

Q: With G19C U36G as the variant, how does the self-cleavage read?
A: 0.141

Q: With G19C U38G as the variant, how does the self-cleavage read?
A: 0.185

Q: For G19C U43A, which self-cleavage is on record?
A: 0.127

Q: For G19C U44A, which self-cleavage is on record?
A: 0.185

Q: With G19C U44G as the variant, how does the self-cleavage read?
A: 0.164

Q: For G19C U46A, which self-cleavage is on record?
A: 0.177

Q: For G19C U46C, which self-cleavage is on record?
A: 0.159

Q: Which self-cleavage does the source give for G19C U49C here?
A: 0.104

Q: For G19C U49G, which self-cleavage is on record?
A: 0.182

Q: With G19C U53A as the variant, how does the self-cleavage read?
A: 0.224

Q: With G19C U53G as the variant, how does the self-cleavage read?
A: 0.158

Q: Which self-cleavage does the source give for G19C U55A here?
A: 0.132

Q: Which self-cleavage does the source give for G19C U55C here?
A: 0.163

Q: With G19C U55G as the variant, how does the self-cleavage read?
A: 0.172

Q: For G19C U61C, which self-cleavage is on record?
A: 0.161

Q: Which self-cleavage does the source give for G19C U61G here?
A: 0.116

Q: Which self-cleavage does the source give for G19C U62G here?
A: 0.162

Q: With G19C U64C as the variant, how does the self-cleavage read?
A: 0.123

Q: Which self-cleavage does the source give for G19C U67A here?
A: 0.0765

Q: With G19C U67G as the variant, how does the self-cleavage read?
A: 0.159

Q: With G19C U69C as the variant, how does the self-cleavage read?
A: 0.357

Q: Which self-cleavage does the source give for G19C U69G here?
A: 0.231

Q: With G19U as the variant, how does the self-cleavage read?
A: 0.644

Q: For G19U A23C, which self-cleavage is on record?
A: 0.333

Q: With G19U A23U as the variant, how does the self-cleavage read?
A: 0.494

Q: With G19U A40C as the variant, how does the self-cleavage read?
A: 0.189

Q: For G19U A40G, which self-cleavage is on record?
A: 0.332

Q: With G19U A40U as the variant, how does the self-cleavage read?
A: 0.237

Q: Which self-cleavage does the source give for G19U A42C here?
A: 0.269

Q: With G19U A42G as the variant, how does the self-cleavage read?
A: 0.326

Q: Which self-cleavage does the source give for G19U A42U here?
A: 0.327

Q: For G19U A51G, which self-cleavage is on record?
A: 0.538

Q: Which self-cleavage does the source give for G19U A51U here?
A: 0.476

Q: Which self-cleavage does the source give for G19U A52C here?
A: 0.432

Q: With G19U A52G as the variant, how does the self-cleavage read?
A: 0.589

Q: For G19U A52U, which self-cleavage is on record?
A: 0.474

Q: Which self-cleavage does the source give for G19U A59G here?
A: 0.66

Q: For G19U A59U, which self-cleavage is on record?
A: 0.158

Q: For G19U A60G, which self-cleavage is on record?
A: 0.289

Q: Which self-cleavage does the source give for G19U A60U here?
A: 0.168

Q: Which self-cleavage does the source give for G19U C22A here?
A: 0.14

Q: With G19U C22G as the variant, how does the self-cleavage read?
A: 0.164

Q: For G19U C22U, which self-cleavage is on record?
A: 0.107

Q: With G19U C24G as the variant, how does the self-cleavage read?
A: 0.121

Q: With G19U C27A as the variant, how does the self-cleavage read?
A: 0.947

Q: With G19U C27G as the variant, how does the self-cleavage read?
A: 0.82

Q: With G19U C29A as the variant, how does the self-cleavage read?
A: 0.161

Q: For G19U C29G, which self-cleavage is on record?
A: 0.175

Q: Which self-cleavage does the source give for G19U C32A here?
A: 0.281

Q: With G19U C32G as the variant, how does the self-cleavage read?
A: 0.157

Q: With G19U C33A as the variant, how does the self-cleavage read?
A: 0.101

Q: For G19U C33G, which self-cleavage is on record?
A: 0.203

Q: For G19U C33U, which self-cleavage is on record?
A: 0.519

Q: Which self-cleavage does the source give for G19U C35G here?
A: 0.199

Q: With G19U C39A as the variant, how does the self-cleavage read?
A: 0.188

Q: For G19U C39G, which self-cleavage is on record?
A: 0.264

Q: Which self-cleavage does the source give for G19U C39U here?
A: 0.22

Q: For G19U C45G, which self-cleavage is on record?
A: 0.4

Q: Which self-cleavage does the source give for G19U C45U here?
A: 0.469

Q: With G19U C54A as the variant, how does the self-cleavage read?
A: 0.182

Q: For G19U C54G, which self-cleavage is on record?
A: 0.317

Q: For G19U C54U, which self-cleavage is on record?
A: 0.625

Q: For G19U C57G, which self-cleavage is on record?
A: 0.218

Q: For G19U C57U, which self-cleavage is on record?
A: 0.21

Q: Which self-cleavage does the source give for G19U C63A here?
A: 0.179

Q: Which self-cleavage does the source give for G19U C66A here?
A: 0.271

Q: With G19U C66G as the variant, how does the self-cleavage read?
A: 0.27

Q: With G19U G25A as the variant, how does the self-cleavage read?
A: 0.177

Q: With G19U G25C as the variant, how does the self-cleavage read?
A: 0.122

Q: For G19U G25U, which self-cleavage is on record?
A: 0.14

Q: For G19U G28A, which self-cleavage is on record?
A: 0.122

Q: Which self-cleavage does the source give for G19U G28U here?
A: 0.116

Q: For G19U G30A, which self-cleavage is on record?
A: 0.143

Q: For G19U G30U, which self-cleavage is on record?
A: 0.166

Q: Which self-cleavage does the source give for G19U G31A here?
A: 0.258

Q: For G19U G31C, which self-cleavage is on record?
A: 0.163

Q: Which self-cleavage does the source give for G19U G31U here?
A: 0.168

Q: For G19U G37A, which self-cleavage is on record?
A: 0.19

Q: Which self-cleavage does the source give for G19U G37C here?
A: 0.175

Q: With G19U G37U as the variant, how does the self-cleavage read?
A: 0.199

Q: Which self-cleavage does the source give for G19U G41A here?
A: 0.181

Q: Which self-cleavage does the source give for G19U G41C here?
A: 0.16

Q: Which self-cleavage does the source give for G19U G41U here?
A: 0.157

Q: For G19U G47U, which self-cleavage is on record?
A: 0.64

Q: For G19U G48U, which self-cleavage is on record?
A: 0.681

Q: With G19U G50A as the variant, how does the self-cleavage read?
A: 0.543

Q: For G19U G50C, which self-cleavage is on record?
A: 0.458

Q: Which self-cleavage does the source give for G19U G56A here?
A: 0.301

Q: For G19U G56C, which self-cleavage is on record?
A: 0.222

Q: Which self-cleavage does the source give for G19U G58A here?
A: 0.352

Q: With G19U G58U as the variant, how does the self-cleavage read?
A: 0.553

Q: For G19U G65A, which self-cleavage is on record?
A: 0.254

Q: For G19U G65C, which self-cleavage is on record?
A: 0.287

Q: Which self-cleavage does the source give for G19U G65U here?
A: 0.148

Q: For G19U G68C, which self-cleavage is on record?
A: 0.791

Q: With G19U G68U as the variant, how does the self-cleavage read?
A: 0.738

Q: With G19U U20A as the variant, how does the self-cleavage read?
A: 0.0978

Q: With G19U U20C as the variant, how does the self-cleavage read?
A: 0.166

Q: With G19U U21C as the variant, how does the self-cleavage read?
A: 0.218

Q: For G19U U26A, which self-cleavage is on record?
A: 0.272

Q: For G19U U26C, which self-cleavage is on record?
A: 0.256

Q: With G19U U26G as the variant, how does the self-cleavage read?
A: 0.256

Q: For G19U U36G, which self-cleavage is on record?
A: 0.222

Q: With G19U U38A as the variant, how does the self-cleavage read?
A: 0.227

Q: Which self-cleavage does the source give for G19U U38G here?
A: 0.201

Q: Which self-cleavage does the source give for G19U U43A here?
A: 0.202

Q: For G19U U43C, which self-cleavage is on record?
A: 0.333

Q: Which self-cleavage does the source give for G19U U43G here?
A: 0.223

Q: For G19U U44A, which self-cleavage is on record?
A: 0.354

Q: Which self-cleavage does the source give for G19U U44G here?
A: 0.398

Q: With G19U U46A as the variant, how does the self-cleavage read?
A: 0.591

Q: Which self-cleavage does the source give for G19U U46C here?
A: 0.499

Reference: the RNAGym collection of RNA variant scans (doi:10.7554/elife.80360)
